Data from patent US20260242419A1, “A CYCLIC PEPTIDE FOR TRAPPING INTERLEUKIN-1 BETA” (Merck Sharp & Dohme LLC, priority 2023, published 2026).
Starred links: 1 amine or outer side, 2 acyl side, 3 side chain; linkers in the order of their positions; H or OH if unused. Non-standard residues stand in square brackets, D forms with d. Residues, ends and D or L forms follow the SMILES beside them. 3Pal4Ph4CO2H = 4-[5-[(2S)-2-amino-2-carboxy-ethyl]-2-pyridyl]benzoic acid, O=C([C@H](Cc1ccc(-c2ccc(C(=O)[*:3])cc2)nc1)N[*:1])[*:2]; TyrEtNAc = (2S)-3-[4-(2-acetamidoethoxy)phenyl]-2-amino-propanoic acid, CC(=O)NCCOc1ccc(C[C@H](N[*:1])C(=O)[*:2])cc1; dProc3Bn = (2R,3S)-3-benzylpyrrolidine-2-carboxylic acid, O=C([C@H]1[C@@H](Cc2ccccc2)CCN1[*:1])[*:2]; 3PyridaAla = (2S)-2-amino-3-pyridazin-3-yl-propanoic acid, O=C([C@H](Cc1cccnn1)N[*:1])[*:2]; Phe(4-(cis-4-COOH-cHex)) = N[C@@H](Cc1ccc([C@H]2CC[C@@H](C(=O)O)CC2)cc1)C(=O)O; Phe(4-(5-CO2H-2-pyrimidyl)) = N[C@@H](Cc1ccc(-c2ncc(C(=O)O)cn2)cc1)C(=O)O; dPro(4R-(4-pyridylmethyl)) = O=C(O)[C@H]1C[C@@H](Cc2ccncc2)CN1; Trp(βS-Me,4-F) = C[C@@H](c1c[nH]c2cccc(F)c12)[C@H](N)C(=O)O; Bip(4'-COOH) = N[C@@H](Cc1ccc(-c2ccc(C(=O)O)cc2)cc1)C(=O)O; Ala(1-bicyclo(1.1.1)pentyl) = N[C@@H](CC12CC(C1)C2)C(=O)O; dPro(4R-Bzl(4-F)) = O=C(O)[C@H]1C[C@@H](Cc2ccc(F)cc2)CN1; Ala(morpholin-4-yl) = N[C@@H](CN1CCOCC1)C(=O)O; Ala(pyrimidin-5-yl) = N[C@@H](Cc1cncnc1)C(=O)O; Phe(4-COOH) = N[C@@H](Cc1ccc(C(=O)O)cc1)C(=O)O; Ala(2-pyrazinyl) = N[C@@H](Cc1cnccn1)C(=O)O; Pro(cis-4-F) = O=C(O)[C@@H]1C[C@H](F)CN1; 4Pal = N[C@@H](Cc1ccncc1)C(=O)O; αMeK = C[C@](N)(CCCCN)C(=O)O; αMeS = C[C@](N)(CO)C(=O)O; Api = NC1(C(=O)O)CCNCC1; Dab = NCC[C@H](N)C(=O)O; Dap = NC[C@H](N)C(=O)O; Aib = CC(C)(N)C(=O)O

What follows are molecules tested against Recombinant human IL-1β (BioLegend 579404) (human, UniProt P01584 117-269) (assay: cell-based or functional assay). Conditions: not given.

| Molecule | MRC5 IC50 [nM] |
| --- | --- |
| cyclo([Bip(4'-COOH)][4Pal][Phe(4-COOH)]G[Pro(cis-4-F)][Trp(βS-Me,4-F)][Aib]EW[Aib]FQSG[dProc3Bn]) (SMILES C[C@@H](c1c[nH]c2cccc(F)c12)[C@@H]1NC(=O)[C@@H]2C[C@H](F)CN2C(=O)CNC(=O)[C@H](Cc2ccc(C(=O)O)cc2)NC(=O)[C@H](Cc2ccncc2)NC(=O)[C@H](Cc2ccc(-c3ccc(C(=O)O)cc3)cc2)NC(=O)[C@H]2[C@@H](Cc3ccccc3)CCN2C(=O)CNC(=O)[C@H](CO)NC(=O)[C@H](CCC(N)=O)NC(=O)[C@H](Cc2ccccc2)NC(=O)C(C)(C)NC(=O)[C@H](Cc2c[nH]c3ccccc23)NC(=O)[C@H](CCC(=O)O)NC(=O)C(C)(C)NC1=O) [SEQ ID NO: 1] | 0.093 |
| cyclo([3Pal4Ph4CO2H][Ala(1-bicyclo(1.1.1)pentyl)][Phe(4-COOH)]G[Pro(cis-4-F)][Trp(βS-Me,4-F)][Aib]EW[Aib][Dap]Q[Dab]G[dPro(4R-Bzl(4-F))]) (SMILES C[C@@H](c1c[nH]c2cccc(F)c12)[C@@H]1NC(=O)[C@@H]2C[C@H](F)CN2C(=O)CNC(=O)[C@H](Cc2ccc(C(=O)O)cc2)NC(=O)[C@H](CC23CC(C2)C3)NC(=O)[C@H](Cc2ccc(-c3ccc(C(=O)O)cc3)nc2)NC(=O)[C@H]2C[C@@H](Cc3ccc(F)cc3)CN2C(=O)CNC(=O)[C@H](CCN)NC(=O)[C@H](CCC(N)=O)NC(=O)[C@H](CN)NC(=O)C(C)(C)NC(=O)[C@H](Cc2c[nH]c3ccccc23)NC(=O)[C@H](CCC(=O)O)NC(=O)C(C)(C)NC1=O) [SEQ ID NO: 100] | 0.074 |
| cyclo([TyrEtNAc][4Pal][Phe(4-COOH)]G[Pro(cis-4-F)][Trp(βS-Me,4-F)][Aib]EW[Aib][Ala(pyrimidin-5-yl)]Q[Dab]G[dPro(4R-Bzl(4-F))]) (SMILES CC(=O)NCCOc1ccc(C[C@@H]2NC(=O)[C@H]3C[C@@H](Cc4ccc(F)cc4)CN3C(=O)CNC(=O)[C@H](CCN)NC(=O)[C@H](CCC(N)=O)NC(=O)[C@H](Cc3cncnc3)NC(=O)C(C)(C)NC(=O)[C@H](Cc3c[nH]c4ccccc34)NC(=O)[C@H](CCC(=O)O)NC(=O)C(C)(C)NC(=O)[C@H]([C@@H](C)c3c[nH]c4cccc(F)c34)NC(=O)[C@@H]3C[C@H](F)CN3C(=O)CNC(=O)[C@H](Cc3ccc(C(=O)O)cc3)NC(=O)[C@H](Cc3ccncc3)NC2=O)cc1) [SEQ ID NO: 10] | 0.027 |

Second part, the molecule after the results:

| MRC5 IC50 [nM] | Molecule |
| --- | --- |
| 0.06 | cyclo([Phe(4-(cis-4-COOH-cHex))][Ala(1-bicyclo(1.1.1)pentyl)][Phe(4-COOH)]G[Pro(cis-4-F)][Trp(βS-Me,4-F)][αMeS]EW[Aib][Ala(pyrimidin-5-yl)]Q[Dab]G[dPro(4R-Bzl(4-F))]) (SMILES C[C@@H](c1c[nH]c2cccc(F)c12)[C@@H]1NC(=O)[C@@H]2C[C@H](F)CN2C(=O)CNC(=O)[C@H](Cc2ccc(C(=O)O)cc2)NC(=O)[C@H](CC23CC(C2)C3)NC(=O)[C@H](Cc2ccc([C@H]3CC[C@@H](C(=O)O)CC3)cc2)NC(=O)[C@H]2C[C@@H](Cc3ccc(F)cc3)CN2C(=O)CNC(=O)[C@H](CCN)NC(=O)[C@H](CCC(N)=O)NC(=O)[C@H](Cc2cncnc2)NC(=O)C(C)(C)NC(=O)[C@H](Cc2c[nH]c3ccccc23)NC(=O)[C@H](CCC(=O)O)NC(=O)[C@](C)(CO)NC1=O) [SEQ ID NO: 103] |
| 0.021 | cyclo([Bip(4'-COOH)][4Pal][Phe(4-COOH)]G[Pro(cis-4-F)][Trp(βS-Me,4-F)][Aib]EW[Aib][3PyridaAla]Q[Dab]G[dPro(4R-Bzl(4-F))]) (SMILES C[C@@H](c1c[nH]c2cccc(F)c12)[C@@H]1NC(=O)[C@@H]2C[C@H](F)CN2C(=O)CNC(=O)[C@H](Cc2ccc(C(=O)O)cc2)NC(=O)[C@H](Cc2ccncc2)NC(=O)[C@H](Cc2ccc(-c3ccc(C(=O)O)cc3)cc2)NC(=O)[C@H]2C[C@@H](Cc3ccc(F)cc3)CN2C(=O)CNC(=O)[C@H](CCN)NC(=O)[C@H](CCC(N)=O)NC(=O)[C@H](Cc2cccnn2)NC(=O)C(C)(C)NC(=O)[C@H](Cc2c[nH]c3ccccc23)NC(=O)[C@H](CCC(=O)O)NC(=O)C(C)(C)NC1=O) [SEQ ID NO: 102] |
| 0.083 | cyclo([Phe(4-(cis-4-COOH-cHex))][Ala(1-bicyclo(1.1.1)pentyl)][Phe(4-COOH)]G[Pro(cis-4-F)][Trp(βS-Me,4-F)][Aib]EW[Api]SQ[Dab]G[dPro(4R-Bzl(4-F))]) (SMILES C[C@@H](c1c[nH]c2cccc(F)c12)[C@@H]1NC(=O)[C@@H]2C[C@H](F)CN2C(=O)CNC(=O)[C@H](Cc2ccc(C(=O)O)cc2)NC(=O)[C@H](CC23CC(C2)C3)NC(=O)[C@H](Cc2ccc([C@H]3CC[C@@H](C(=O)O)CC3)cc2)NC(=O)[C@H]2C[C@@H](Cc3ccc(F)cc3)CN2C(=O)CNC(=O)[C@H](CCN)NC(=O)[C@H](CCC(N)=O)NC(=O)[C@H](CO)NC(=O)C2(CCNCC2)NC(=O)[C@H](Cc2c[nH]c3ccccc23)NC(=O)[C@H](CCC(=O)O)NC(=O)C(C)(C)NC1=O) [SEQ ID NO: 105] |
| 0.021 | cyclo([Bip(4'-COOH)][4Pal][Phe(4-COOH)]G[Pro(cis-4-F)][Trp(βS-Me,4-F)][Aib]EW[Aib][Ala(2-pyrazinyl)]Q[Dab]G[dPro(4R-Bzl(4-F))]) [SEQ ID NO: 101] |
| 0.031 | cyclo([Phe(4-(cis-4-COOH-cHex))][Ala(1-bicyclo(1.1.1)pentyl)][Phe(4-COOH)]G[Pro(cis-4-F)][Trp(βS-Me,4-F)][Aib]SW[Aib]SQ[Dab]G[dPro(4R-Bzl(4-F))]) (SMILES C[C@@H](c1c[nH]c2cccc(F)c12)[C@@H]1NC(=O)[C@@H]2C[C@H](F)CN2C(=O)CNC(=O)[C@H](Cc2ccc(C(=O)O)cc2)NC(=O)[C@H](CC23CC(C2)C3)NC(=O)[C@H](Cc2ccc([C@H]3CC[C@@H](C(=O)O)CC3)cc2)NC(=O)[C@H]2C[C@@H](Cc3ccc(F)cc3)CN2C(=O)CNC(=O)[C@H](CCN)NC(=O)[C@H](CCC(N)=O)NC(=O)[C@H](CO)NC(=O)C(C)(C)NC(=O)[C@H](Cc2c[nH]c3ccccc23)NC(=O)[C@H](CO)NC(=O)C(C)(C)NC1=O) [SEQ ID NO: 106] |
| 0.085 | cyclo([Phe(4-(cis-4-COOH-cHex))][Ala(1-bicyclo(1.1.1)pentyl)][Phe(4-COOH)]G[Pro(cis-4-F)][Trp(βS-Me,4-F)][αMeS]EW[αMeK][Ala(pyrimidin-5-yl)]Q[Dab]G[dPro(4R-Bzl(4-F))]) (SMILES C[C@@H](c1c[nH]c2cccc(F)c12)[C@@H]1NC(=O)[C@@H]2C[C@H](F)CN2C(=O)CNC(=O)[C@H](Cc2ccc(C(=O)O)cc2)NC(=O)[C@H](CC23CC(C2)C3)NC(=O)[C@H](Cc2ccc([C@H]3CC[C@@H](C(=O)O)CC3)cc2)NC(=O)[C@H]2C[C@@H](Cc3ccc(F)cc3)CN2C(=O)CNC(=O)[C@H](CCN)NC(=O)[C@H](CCC(N)=O)NC(=O)[C@H](Cc2cncnc2)NC(=O)[C@](C)(CCCCN)NC(=O)[C@H](Cc2c[nH]c3ccccc23)NC(=O)[C@H](CCC(=O)O)NC(=O)[C@](C)(CO)NC1=O) [SEQ ID NO: 104] |
| 0.063 | cyclo([Phe(4-(cis-4-COOH-cHex))][Ala(1-bicyclo(1.1.1)pentyl)][Phe(4-COOH)]G[Pro(cis-4-F)][Trp(βS-Me,4-F)][αMeS]EW[Aib]SQ[Dab]G[dPro(4R-Bzl(4-F))]) (SMILES C[C@@H](c1c[nH]c2cccc(F)c12)[C@@H]1NC(=O)[C@@H]2C[C@H](F)CN2C(=O)CNC(=O)[C@H](Cc2ccc(C(=O)O)cc2)NC(=O)[C@H](CC23CC(C2)C3)NC(=O)[C@H](Cc2ccc([C@H]3CC[C@@H](C(=O)O)CC3)cc2)NC(=O)[C@H]2C[C@@H](Cc3ccc(F)cc3)CN2C(=O)CNC(=O)[C@H](CCN)NC(=O)[C@H](CCC(N)=O)NC(=O)[C@H](CO)NC(=O)C(C)(C)NC(=O)[C@H](Cc2c[nH]c3ccccc23)NC(=O)[C@H](CCC(=O)O)NC(=O)[C@](C)(CO)NC1=O) [SEQ ID NO: 107] |

These molecules were tested against T1, IL-1β (Homo sapiens, UniProt P01584) (assay: IL-6 assay in MRC5 cells: inhibition of IL-1β induced IL-6 secretion (AlphaLISA)). Conditions: inhibition of IL-1β induced IL-6 secretion in MRC5 cells; read-out: MRC5 IC50.
T1 construct: purchased BioLegend 579404
Assay type: cell-based
In short: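 Compound was pre-incubated 1 h at ambient temperature with recombinant human IL-1β at 2λ EC80 before adding human lung fibroblast MRC5 cells (3000/well) in EMEM with 0.025% BSA. After overnight culture at 37 °C, 5% CO2, secreted IL-6 in conditioned medium was measured by AlphaLISA; IC50 from 4-parameter logistic fits.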

T1 sequence (P01584 117-269): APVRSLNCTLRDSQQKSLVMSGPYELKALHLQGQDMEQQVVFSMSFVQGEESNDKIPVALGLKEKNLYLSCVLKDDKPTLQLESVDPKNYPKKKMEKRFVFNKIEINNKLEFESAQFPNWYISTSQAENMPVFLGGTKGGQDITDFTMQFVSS

| IC50 [nM] | Molecule |
| --- | --- |
| 0.049 | C[C@@H](c1c[nH]c2cccc(F)c12)[C@@H]1NC(=O)[C@@H]2C[C@H](F)CN2C(=O)CNC(=O)[C@H](Cc2ccc(C(=O)O)cc2)NC(=O)[C@H](Cc2ccncc2)NC(=O)[C@H](Cc2ccc(-c3ccc(C(=O)O)cc3)cc2)NC(=O)[C@H]2C[C@@H](Cc3ccc(F)cc3)CN2C(=O)CNC(=O)[C@H](CN2CCOCC2)NC(=O)[C@H](CCC(N)=O)NC(=O)[C@H](Cc2cncnc2)NC(=O)C(C)(C)NC(=O)[C@H](Cc2c[nH]c3ccccc23)NC(=O)[C@H](CCC(=O)O)NC(=O)C(C)(C)NC1=O [Example 24] (cyclo([Bip(4'-COOH)][4Pal][Phe(4-COOH)]G[Pro(cis-4-F)][Trp(βS-Me,4-F)][Aib]EW[Aib][Ala(pyrimidin-5-yl)]Q[Ala(morpholin-4-yl)]G[dPro(4R-Bzl(4-F))])) |
| 0.074 | C[C@@H]1NC(=O)C(C)(C)NC(=O)[C@H]([C@@H](C)c2c[nH]c3cccc(F)c23)NC(=O)[C@@H]2C[C@H](F)CN2C(=O)CNC(=O)[C@H](Cc2ccc(C(=O)O)cc2)NC(=O)[C@H](Cc2ccncc2)NC(=O)[C@H](Cc2ccc(-c3ncc(C(=O)O)cn3)cc2)NC(=O)[C@H]2C[C@@H](Cc3ccncc3)CN2C(=O)CNC(=O)[C@H](CCN)NC(=O)[C@H](CCC(N)=O)NC(=O)[C@H](Cc2ccncc2)NC(=O)C(C)(C)NC(=O)[C@H](Cc2c[nH]c3ccccc23)NC1=O [Example 85] (cyclo([Phe(4-(5-CO2H-2-pyrimidyl))][4Pal][Phe(4-COOH)]G[Pro(cis-4-F)][Trp(βS-Me,4-F)][Aib]AW[Aib][4Pal]Q[Dab]G[dPro(4R-(4-pyridylmethyl))])) |
